Laboratory results taken from patent EP4737480A1 (Japan Science and Technology Agency, dated 2026).

Target: recombinant HER2 molecule (UniProt P04626 23-652)
Assay: BLI (Octet N1), HER2 on streptavidin biosensor

B1: trastuzumab light chain P95ΔP96Δ (other)
light: DIQMTQSPSSLSASVGDRVTITCRASQDVNTAVAWYQQKPGKAPKLLIYSASFLYSGVPSRFSGSRSGTDFTLTISSLQPEDFATYYCQQHYTTTFGQGTKVEIKRTVAAPSVFIFPPSDEQLKSGTASVVCLLNNFYPREAKVQWKVDNALQSGNSQESVTEQDSKDSTYSLSSTLTLSKADYEKHKVYACEVTHQGLSSPVTKSFNRGEC
notes: also called Tmb-L-PPΔ; Tmb-L-PΔΔ
Kd: 123 nM
koff: 0.00258 s⁻¹
kon: 20900 M⁻¹ s⁻¹
